± gives the standard deviation.
Assay: protein stability index of a GFP-peptide fusion (GPS, HEK-293T) (PSI 1-6); higher = more stable
[1] = treatment: DMSO, c terminus: a fixed tail appended
[2] = treatment: MLN4924 1 uM, 8 h, c terminus: a fixed tail appended
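Also: 24-mer peptide tiles fused after GFP, lentivirally expressed, FACS-sorted into six equal bins by GFP/DsRed ratio, decoded by Illumina sequencing, PSI is the read-weighted mean bin number.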

Sequence | protein stability index [1] | protein stability index [2] | protein stability index (treatment: DMSO, c terminus: native) | protein stability index (treatment: MLN4924 1 uM, 8 h, c terminus: native)
FLLSQQTDLPECEQSSARQKASLL [TCF25] | 3.78 ± 0.52 | 3.83 ± 0.12 |  | 
AWVANFERPRMNANSLLASPTGLS [CRY1] | 2.64 ± 0.5 | 2.97 ± 0.37 |  | 
GLKLIQIQDNGTGIRKEDLDIVCE [MLH1] | 3.56 ± 0.37 | 3.87 ± 0.75 |  | 
IEDSTGLNRPGPAPLSSRKHVLYV [TCF25] | 2.27 ± 0.45 | 2.35 ± 0.31 |  | 
SNDGARRQFEFYLEEMILPLMVAS [BTBD10] | 2.25 ± 0.078 | 2.2 ± 0.073 |  | 
HGEELRVSARSREGRGGRPGSTRP [HAGHL] | 4.92 ± 0.2 | 4.93 ± 0.16 |  | 
VSNTRLIAAATSVLKTRFSYAFPK [CCNC] | 2.24 ± 0.44 | 1.96 ± 0.34 |  | 
PLSLYGQLLWREFFYTAATNNPRF [CRY1] | 2.79 ± 0.46 | 2.5 ± 0.72 |  | 
LQNTYMGYLDYRKKAIKDLGISPS [GLT8D2] | 2.64 ± 0.24 | 2.91 ± 0.16 |  | 
QGVISQLEDTCKTIEECCRKQKQE [TRIM55] | 5.2 ± 0.29 | 5.34 ± 0.31 |  | 
KKIPIISNAMLVGDKLKFLSMLLT [ACSBG2] | 2.3 ± 0.79 | 2.47 ± 0.6 |  | 
MAKKHKKIRLRCQKGIPPSLRGRA [TBC1D10A] | 3.29 ± 0.18 | 3.35 ± 0.29 |  | 
QLGDLHTCLMMDMKACQEDDVRLL [INTS3] | 3.41 ± 0.18 | 3.56 ± 0.19 |  | 
GSLSLSFEREPSTSDLGTTDVQKK [RIPK4] | 5.26 ± 0.45 | 5.31 ± 0.064 |  | 
MAQTVPPCELPCKEYDVARNTGAY [TEKT4] | 4.16 ± 0.27 | 4.08 ± 0.26 |  | 
LEQQNQVLETKWELLQQLDLNNCK [KRT71] | 4.21 ± 0.21 | 4.4 ± 0.27 |  | 
TIPATLLVDHVGSKTFLCIGSSVM [SLC2A12] | 2.69 ± 0.5 | 2.34 ± 0.44 |  | 
SYGPVILVVLVVAVVASSVNSYYS [TOR1AIP2] | 3.57 ± 0.3 | 2.85 ± 0.095 |  | 
AECALNERGVEGDFLIRDSESSPS [NCK2] | 5.42 ± 0.33 | 5.48 ± 0.2 |  | 
GNDSFQLQVTEDVNSSIKTFFCPN [CLCN6] | 3.54 ± 0.31 | 3.6 ± 0.26 |  | 
NQYATCRLCGRQVSRGPGVNVGTT [ZBED2] | 2.39 ± 0.27 | 2.58 ± 0.46 |  | 
SALEGRADTTTGSAAGPPLSEDDK [EHMT1] | 5.14 ± 0.83 | 5.38 ± 0.43 |  | 
RSEEAVQVLIKHSADVNARDKNWQ [ANKRD44] | 4.17 ± 0.22 | 4.44 ± 0.33 |  | 

Sequence | protein stability index [1] | protein stability index [2] | protein stability index (treatment: DMSO, c terminus: native) | protein stability index (treatment: MLN4924 1 uM, 8 h, c terminus: native)
LEPLSLPESPGGTTTLEGSPSVPC [ZNF277] | 5.22 ± 0.16 | 5.3 ± 0.14 |  | 
YSLVTHIPAGARDIQIVERKKSAD [ADAMTSL2] | 4.37 ± 0.22 | 4.67 ± 0.41 |  | 
ITHTREEQPHGRSRRREQSSSRNS [ZNF8] | 5.33 ± 0.37 | 5.41 ± 0.13 |  | 
TFDHEHHTTIVATRHYRPPEVILE [CLK3] | 3.34 ± 0.19 | 3.29 ± 0.17 |  | 
VTLELSQLSMLPHLADLVSYSIQK [VDR] | 2.86 ± 0.52 | 2.91 ± 0.26 |  | 
IITRHNLTYEFLQARLRQHYQTI [CLCN6] |  |  | 2.75 ± 0.49 | 2.69 ± 0.46
MRATPLAAPAGSLSRKKRLELDDN [TRIB3] | 4.57 ± 0.14 | 4.86 ± 0.23 |  | 
GKEFGYFPRDAVQIEEVFISEEIQ [MIA2] | 3.88 ± 0.42 | 3.77 ± 0.45 |  | 
LGISPSTCSFNPGVIVANMTEWKH [GLT8D2] | 2.59 ± 0.3 | 2.59 ± 0.23 |  | 
VALGHAYHPEEFVCSQCGKVLEEG [PDLIM7] | 3.93 ± 0.34 | 4.03 ± 0.11 |  | 
SARIGQNCSIGPNVSLGPGVVVED [GMPPB] | 4.49 ± 0.33 | 4.58 ± 0.23 |  | 
RFCSEIKSSKYGEGHQAWIVGIVE [SEPHS2] | 2.23 ± 0.21 | 2.12 ± 0.37 |  | 
TRYSVAGLSPYSDYEFRVVAVNNI [PTPRD] | 2.51 ± 0.35 | 2.61 ± 0.37 |  | 
VYKSLLLLAYLIRNGSERVVTSAR [CLINT1] | 2.57 ± 0.51 | 2.59 ± 0.39 |  | 
CVLVPRADLRLGGQPAPPQLLLGR [SMAD6] | 2.5 ± 0.5 | 2.65 ± 0.099 |  | 
APAPAPASSGQHHDFLSDLFSDDY [CEBPB] | 5.13 ± 0.29 | 5.14 ± 0.16 |  | 
MEKKSKPKNSVWKRLKSPFRKKKD [RIT1] | 3.69 ± 0.12 | 3.88 ± 0.3 |  | 
STTEWNDETLYQEFNGLKKMNPKL [CHIT1] | 4.2 ± 0.2 | 4.54 ± 0.2 |  | 
REAEKQNYLAEHCPPLHIPGSMSE [TNNI2] | 4.67 ± 0.25 | 4.72 ± 0.31 |  | 
FLRGPSGPRFGPRNDKIKHVQNQV [VAMP4] | 2.93 ± 0.27 | 3.39 ± 0.31 |  | 
NNEAFMNQEITKAFHVRRTNRVKE [RHOBTB2] | 4.44 ± 0.25 | 4.48 ± 0.21 |  | 
PNLSPHAPWNYHYHCPGSPDHQVP [TRAF3IP2] | 3.29 ± 0.34 | 3.54 ± 0.32 |  | 
QERQMLQALKFLPVPSAPVIDLAE [FSD1] | 3.47 ± 0.31 | 3.3 ± 0.25 |  | 

Sequence | protein stability index [1] | protein stability index [2] | protein stability index (treatment: DMSO, c terminus: native) | protein stability index (treatment: MLN4924 1 uM, 8 h, c terminus: native)
PQYEFKEAAGSFTSSLAQPGAYYP [IRX6] | 3.37 ± 0.19 | 3.36 ± 0.24 |  | 
TATFAVHFMVLSKSGPGDGFFSSA [POMT2] | 2.84 ± 0.36 | 2.93 ± 0.51 |  | 
NSDLNNLLFCCQCVDVVFYNPDLK [RHOBTB3] | 2.28 ± 0.99 | 2.59 ± 0.6 |  | 
VKWLSFHSGYDFGYLIKILTNSNL [CNOT7] | 2.58 ± 0.21 | 2.86 ± 0.69 |  | 
LTRMTRVSEFLKVAEQVGIDKGDI [SNAP91] | 3.39 ± 0.23 | 3.48 ± 0.23 |  | 
LFSKWFSESGKLVTKMFQKIQDLI [TRIP13] | 2.98 ± 0.52 | 2.49 ± 0.39 |  | 
GHLSKDVDENDSHEGEDQFLSLEA [DLC1] | 5.63 ± 0.17 | 5.54 ± 0.077 |  | 
SNCLGIRDFAETHNCVDLMQAAEV [KLHL12] | 4.05 ± 0.64 | 3.68 ± 0.59 |  | 
SKIDHYVLEYRRTNFEGPPRLKED [FSD1] | 3.52 ± 0.15 | 3.63 ± 0.087 |  | 
RSLANGPNAGEQPGQVAGADFESE [EID1] | 5.22 ± 0.24 | 5.74 ± 0.18 |  | 
RWDMADNEQVLTTEHEKKQKLETD [YJU2B] | 5.39 ± 0.32 | 5.37 ± 0.21 |  | 
ADEQLHCAGKAKRSGGHAPRVREL [ESR2] | 4.45 ± 0.26 | 4.39 ± 0.3 |  | 
MPQSEEHLLEAEPLSPIQASSVHL | 4.87 ± 0.17 | 4.94 ± 0.17 |  | 
RGGRQKYKRRIDAENSPYLNPQLV [ESRRG] | 3.59 ± 0.25 | 3.93 ± 0.21 |  | 
AWKHGNIHLSAPCIYSEVMEALKL [PCMTD1] | 2.28 ± 0.34 | 2.14 ± 0.33 |  | 
TNPDLIIVCAQSSQSLWNRLSVLL [SMG5] | 2.59 ± 0.54 | 2.49 ± 0.64 |  | 
LESEDWEEDNWDPELMEHTEAESE [TEX19] | 5.59 ± 0.29 | 5.53 ± 0.32 |  | 
RMDFAAKLMKNIRFPLMTPQELIN [KLHL13] | 2.01 ± 0.31 | 1.94 ± 0.27 |  | 
GTSDYDDVLSCEYYSPILDQWTPI [KLHL13] | 2.41 ± 0.33 | 2.34 ± 0.19 |  | 
RVYLATDDPSLLKEAKTKYPNYEF [FUT8] | 2.95 ± 0.36 | 2.9 ± 0.28 |  | 
PKRRWLFWNSPSSPSSSAASSSSP [RHOBTB2] | 3.57 ± 0.2 | 3.75 ± 0.18 |  | 
FFVANKYWRYDEYKRSMDPGYPKM [MMP1] | 2.15 ± 0.33 | 2.16 ± 0.33 |  | 

Reference: the supplement of paper PMC10567573
